From publication PMC12095639

Biological target: Ankyrin and SOCS Box-containing protein-10 (Asb10), rat, FLAG-tagged, expressed from adenovirus (Ad-Asb10) (rat)
Assay: co-IP; NRVMs overexpressing Asb10; lysates incubated with antibody and Protein A&G magnet beads overnight at 4 °C, washed 5 times with 0.5% PBST; western blot of candidate interacting proteins (Fig. 3C)

- fold weaker binding than HSP70 with Asb10: 10 fold
Substance: HSC70, endogenous in NRVMs (from UniProt P63018 1-646) (natural protein)
